Results: patent US10550151B2, “Cell-penetrating compositions and methods using same” (Yale University, priority 2013, dated 2020)
Where no end group is shown, it is not given here.

What was measured:
[1] = molecular target: T1, eNOS (Bos taurus, UniProt P29473); assay: VEGF-induced NO release by cultured BAEC (NO chemiluminescence); assay type: cell-based, bovine; conditions: for inhibition of VEGF-induced NO release: 6 h pretreatment; for effect on basal (unstimulated) NO release: six-hour pretreatment, no VEGF
T1 construct: effect of Endo5 fused to Cav (endo5-Cav) on NO release by cultured BAEC; endogenous in cells; host or cells: BAEC (cultured endothelial cells)
T1 sequence (P29473 2-1205 limits assumed): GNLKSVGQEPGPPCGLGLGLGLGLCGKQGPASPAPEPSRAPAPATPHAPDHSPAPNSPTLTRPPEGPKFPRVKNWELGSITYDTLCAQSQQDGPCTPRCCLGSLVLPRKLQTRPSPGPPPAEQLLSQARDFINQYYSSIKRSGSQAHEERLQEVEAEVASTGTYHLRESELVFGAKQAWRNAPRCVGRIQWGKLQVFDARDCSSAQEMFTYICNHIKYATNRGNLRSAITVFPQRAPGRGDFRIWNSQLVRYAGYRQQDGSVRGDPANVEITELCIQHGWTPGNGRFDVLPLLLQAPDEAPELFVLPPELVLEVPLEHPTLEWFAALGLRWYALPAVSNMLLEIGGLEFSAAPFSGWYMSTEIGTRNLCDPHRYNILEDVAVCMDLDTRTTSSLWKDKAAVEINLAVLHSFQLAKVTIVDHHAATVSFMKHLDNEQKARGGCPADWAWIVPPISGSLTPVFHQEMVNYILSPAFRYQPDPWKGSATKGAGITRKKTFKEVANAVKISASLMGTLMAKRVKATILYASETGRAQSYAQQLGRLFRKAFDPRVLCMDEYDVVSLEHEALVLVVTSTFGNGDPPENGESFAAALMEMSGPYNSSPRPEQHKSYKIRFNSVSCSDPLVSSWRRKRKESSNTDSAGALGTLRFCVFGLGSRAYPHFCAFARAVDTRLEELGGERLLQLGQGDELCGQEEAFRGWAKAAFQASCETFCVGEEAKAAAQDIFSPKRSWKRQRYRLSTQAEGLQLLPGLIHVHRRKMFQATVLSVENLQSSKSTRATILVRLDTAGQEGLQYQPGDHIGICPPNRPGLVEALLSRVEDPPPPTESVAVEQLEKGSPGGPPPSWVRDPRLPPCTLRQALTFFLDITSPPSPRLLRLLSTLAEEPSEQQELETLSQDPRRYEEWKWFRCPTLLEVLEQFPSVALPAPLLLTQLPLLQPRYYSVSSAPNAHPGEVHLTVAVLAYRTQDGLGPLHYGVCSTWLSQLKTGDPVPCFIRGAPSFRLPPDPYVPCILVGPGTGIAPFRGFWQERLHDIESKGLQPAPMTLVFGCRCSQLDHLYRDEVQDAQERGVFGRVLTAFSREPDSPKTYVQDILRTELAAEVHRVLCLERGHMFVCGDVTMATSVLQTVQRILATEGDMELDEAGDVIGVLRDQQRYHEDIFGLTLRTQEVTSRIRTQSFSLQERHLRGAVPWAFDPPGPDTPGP
Description: Briefly, confluent BAEC were incubated in serum-free DMEM for 6 hours with peptides. Media was removed and fresh serum-free DMEM was added, with or without VEGF (10^−9 M) for 30 min. Media was collected, cells were trypsinized and counted, and nitrites levels in the supernatant were determined by using a Sievers NO chemiluminescence analyzer.
AP-Cav blocks agonist-induced eNOS activity in cultured endothelial cells (Bucci et al., 2000, Nat. Med. 6:1362-7), and this biological activity is dependent on AP-Cav's internalization, dosage and pretreatment time. In the present study, the uptake potential of Endo5 was compared with that of AP by testing the effect of Endo5 fused to Cav (endo5-Cav) on NO release by cultured BAEC.

[2] = test system: HUVEC; assay: CPP imaging in live HUVEC (epifluorescence, pulse/chase); assay type: cell-based, human; conditions: for staining pattern after 1 h pulse: 37° C.; for staining pattern after two-hour chase: 2 h chase in absence of CPP
Description: Freshly isolated HUVEC were grown in M199 media supplemented with glutamine, 10% FBS and endothelial cell growth supplement on Petri dishes with glass bottom. Since CPPs bind non-specifically to glass, the background fluorescence was reduced by pretreating glass-bottom Petri dishes with a blocking solution containing unlabelled AP and Endo5 for 30 min (5×10^−5 M) in colorless M199 media with 1% FBS. After cell seeding, media was removed and carboxyfluorescin-labeled Endo5 and Rhodamine-labeled AP were added to cells (10^−5 M) and cells were incubated at 37° C. and 5% CO2 for 1 hour (pulse). Media was removed, cells were rinsed once with warm culture media and peptide uptake was rapidly visualized on a Zess Axiovert inverted fluorescence microscope by performing a Z-stack of captured images followed by volume deconvolution (Openlab software). The new media was left on cells for an additional 2 hours (total 3 hours) to chase CPP localization, and cells were visualized again (chase).
In the present study, epifluorescence microscopy experiments were performed in live HUVEC to compare the uptake mechanism of Endo5 to AP. After blocking glass bottom Petri dishes with unlabelled AP and Endo5 to minimize non-specific binding of labeled peptides, freshly isolated HUVEC were grown to 50% confluent and labeled with a “pulse” of carboxyfluorescein-Endo5 and rhodamine-AP (10^−6M) for 1 h, rinsed, followed by a two-hour “chase” for a total of 3 hours. Deconvoluted images were captured after the “pulse” and “chase” periods. […] (FIG. 5A). Nuclear staining was nearly completely absent (dark central area).

[3] = Peptide solubility in NO release dose-response experiment; assay type: physicochemical; conditions: above 2.5×10^-5 M
[4] = peptide 10^-5 M, VEGF 10^-9 M 30 min

Row | Substance | inhibition of VEGF-induced NO release ([1]; peptide 2×10^-6 M) | inhibition of VEGF-induced NO release [1, 4] | effect on basal (unstimulated) NO release ([1]; peptide 10^-5 M) | staining pattern after 1 h pulse [2] | staining pattern after two-hour chase [2] | solubility limit [3]
1 | Endo5-CavAB: Endo5 fused to the Cav AB domain (caveolin-1 amino acids 82-95, SEQ ID NO: 6); a 19-mer peptide (RRPPRDGIWKASFTTFTVT) | 49% | completely blocked |  |  |  | 
2 | RQIKIWFQNRRMKWKK [AP, reference compound] |  | no significant effect | no significant effect | diffuse punctate cytoplasmic staining | more concentrated rather than diffuse pattern | 
3 | RQIKIWFQNRRMKWKKDGIWKASFTTFTVTKYWFYR [AP-Cav] |  |  |  |  |  | peptide insolubility at greater dose
4 | RRPPR [Endo5, short five-amino acid cell-permeable peptide] |  | no significant effect | no significant effect | diffuse punctate cytoplasmic staining | more concentrated rather than diffuse pattern | 
